Substrate: N#Cc1cc2ccc(OCOCc3ccccc3)cc2oc1=O
Experiment: Michaelis-Menten kinetic determination of BOMCC O-dealkylation
Assay type: biochemical, Trypanosoma cruzi
Details: other: 37 pmoles/mL T. cruzi CYP51 enzyme, 25-250 μM BOMCC, 37°C
Experimental: Incubations were pre-warmed at 37°C before addition of NADPH regenerating system. Production of CHC was measured at 1 minute intervals at 37°C (Exc 410 nm, Em 460 nm) for 10 minutes (Fig 3b). […] Assay conditions of 37 pmoles/mL of T. cruzi CYP51 in bactosomes and 100 μM BOMCC provided a good dynamic range of metabolism.

B1: T. cruzi CYP51 (Trypanosoma cruzi strain CL Brener) (protein)
chain: MFIEAIVLALTALILYSVYSVKSFNTTRPTDPPVYPVTVPFLGHIVQFGKNPLEFMQRCKRDLKSGVFTISIGGQRVTIVGDPHEHSRFFSPRNEILSPREVYTIMTPVFGEGVAYAAPYPRMREQLNFLAEELTIAKFQNFVPAIQHEVRKFMAENWKEDEGVINLLEDCGAMIINTACQCLFGEDLRKRLNARHFAQLLSKMESSLIPAAVFMPWLLRLPLPQSARCREARAELQKILGEIIVAREKEEASKDNNTSDLLGGLLKAVYRDGTRMSLHEVCGMIVAAMFAGQHTSTITTSWSMLHLMHPKNKKWLDKLHKEIDEFPAQLNYDNVMDEMPFAERCVRESIRRDPPLLMVMRMVKAEVKVGSYVVPKGDIIACSPLLSHHDEEAFPNPRLWDPERDEKVDGAFIGFGAGVHKCIGQKFALLQVKTILATAFREYDFQLLRDEVPDPDYHTMVVGPTLNQCLVKYTRKKKLPS
notes: ompA leader (N); host or cells: E. coli JM109 (membrane fraction, bactosomes)
Km: 191 ± 55 µM
